Assays:
Assay in all cases: cell-based or functional assay
[1] = biological target: p65 AD-Cry2 PHR (human; Arabidopsis thaliana) (UniProt Q04206)
[2] = biological target: Cry2 PHR-p65 AD (Arabidopsis thaliana; human) (UniProt Q96524)
[3] = biological target: NLSx2-p65 AD-Cry2 PHR (L348F) (human; Arabidopsis thaliana)
[4] = biological target: NLSx2-p65 AD-Cry2 PHR (human; Arabidopsis thaliana)
[5] = biological target: p65 AD-Cry2 535 (L348F) (human; Arabidopsis thaliana) (UniProt Q04206)
[6] = biological target: Cry2 PHR-p65 AD-NLSx2 (Arabidopsis thaliana; human)
[7] = biological target: Cry2 PHR (L348F)-p65 AD (Arabidopsis thaliana; human) (UniProt Q96524)
[8] = biological target: p65 AD-Cry2 535 (human; Arabidopsis thaliana) (UniProt Q04206)
[9] = biological target: Cry2 PHR (L348F)-p65 AD-NLSx2
[10] = biological target: p65 AD-Cry2 PHR (L348F) (human; Arabidopsis thaliana) (UniProt Q04206)

Substance | Average of the Light/Dark ratio [1] | Light/Dark [1] | Ub-ELuc luciferase, Dark [1] [relative] | Ub-ELuc luciferase, Light [1] [relative] | Average of the Light/Dark ratio [2] | Light/Dark [2] | Ub-ELuc luciferase, Dark [2] [relative] | Ub-ELuc luciferase, Light [2] [relative] | Average of the Light/Dark ratio [3] | Light/Dark [3] | Ub-ELuc luciferase, Dark [3] [relative] | Ub-ELuc luciferase, Light [3] [relative] | Average of the Light/Dark ratio [4] | Light/Dark [4] | Ub-ELuc luciferase, Dark [4] [relative] | Ub-ELuc luciferase, Light [4] [relative] | Average of the Light/Dark ratio [5] | Light/Dark [5] | Ub-ELuc luciferase, Dark [5] [relative] | Ub-ELuc luciferase, Light [5] [relative] | also measured
TetR (I194T, 1-206)-SPKKK-CIB1 full | 1.6 | 1.6 | 13.8 | 20.7 | 1.5 | 1.7 | 2.4 | 4.1 | 1.7 | 1.8 | 19.3 | 34.3 | 1.9 | 2.4 | 21.9 | 50.9 | 2 | 2.3 | 4.8 | 10.5 | Average of the Light/Dark ratio [6]: 0.9; Light/Dark [6]: 0.8; Ub-ELuc luciferase, Dark [6]: 20.1 relative; Ub-ELuc luciferase, Light [6]: 16.6 relative; Average of the Light/Dark ratio [7]: 1.6; Light/Dark [7]: 1.6; Ub-ELuc luciferase, Dark [7]: 2.7 relative; Ub-ELuc luciferase, Light [7]: 4.3 relative; Average of the Light/Dark ratio [8]: 2.1; Light/Dark [8]: 2.1; Ub-ELuc luciferase, Dark [8]: 4.3 relative; Ub-ELuc luciferase, Light [8]: 8.7 relative; Average of the Light/Dark ratio [9]: 1; Light/Dark [9]: 1.4; Ub-ELuc luciferase, Dark [9]: 5.1 relative; Ub-ELuc luciferase, Light [9]: 6.8 relative; Average of the Light/Dark ratio [10]: 1.7; Light/Dark [10]: 2.2; Ub-ELuc luciferase, Dark [10]: 8.3 relative; Ub-ELuc luciferase, Light [10]: 17.2 relative
TetR (I194T, 1-206)-SPKKK-CIB1 full no NLS | 1.5 | 2 | 36.2 | 65.2 | 1.4 | 2 | 3 | 5.4 | 1.4 | 1.9 | 50.2 | 86.8 | 1.6 | 2.2 | 56 | 109 | 2 | 2.7 | 9.3 | 23.9 | Average of the Light/Dark ratio [6]: 0.9; Light/Dark [6]: 0.9; Ub-ELuc luciferase, Dark [6]: 30.1 relative; Ub-ELuc luciferase, Light [6]: 25.2 relative; Average of the Light/Dark ratio [7]: 1.2; Light/Dark [7]: 1.5; Ub-ELuc luciferase, Dark [7]: 4.8 relative; Ub-ELuc luciferase, Light [7]: 7.2 relative; Average of the Light/Dark ratio [8]: 2; Light/Dark [8]: 3.3; Ub-ELuc luciferase, Dark [8]: 10.4 relative; Ub-ELuc luciferase, Light [8]: 31.8 relative; Average of the Light/Dark ratio [9]: 0.9; Light/Dark [9]: 1.2; Ub-ELuc luciferase, Dark [9]: 11.3 relative; Ub-ELuc luciferase, Light [9]: 12.4 relative; Average of the Light/Dark ratio [10]: 1.4; Light/Dark [10]: 1.6; Ub-ELuc luciferase, Dark [10]: 33 relative; Ub-ELuc luciferase, Light [10]: 47.9 relative

From patent publication US20210340548A1
